Measured values as given in patent publication US7504561B2, “GDC-1 genes conferring herbicide resistance” (Athenix Corporation, priority 2003, dated 2009).

Assay: Standard pyruvate decarboxylase assay (coupled reaction with alcohol dehydrogenase, absorbance at 340 nm)
Assay type: biochemical
Details: 100 ng of GDC-1 protein
Experimental: 100 ng of GDC-1 protein was tested for activity in a standard pyruvate decarboxylase assay (Gounaris et al. (1971) J. of Biol. Chem. 246:1302-1309). This assay is a coupled reaction, wherein the first step the pyruvate decarboxylase (PDC) converts pyruvate to acetaldehyde and CO2. The acetaldehyde produced in this reaction is a substrate for alcohol dehydrogenase, which converts acetaldehyde and β-NADH to ethanol and β-NAD. Thus, PDC activity is detected by virtue of utilization of β-NADH as decrease in absorbance at 340 nm in a spectrophotometer. GDC-1 as well as a control enzyme (pyruvate decarboxylase, Sigma) were tested in this assay.

B1: GDC-1: glyphosate resistance-conferring decarboxylase from fungal strain ATX6394, SEQ ID NO:19; purified as 6×His-tagged protein (protein)
chain: MASINIRVQNLEQPMDVAEYLFRRLHEIGIRSIHGLPGDYNPLALDYLPSCGLRWVGSVNELNAAYAADGYARVKQMGALITTFGVGELSAINGVAGAFSEHVPVVHIVGCPSTASQRNGMLLHHTLGNGDFNIFANMSAQISCEVAKLTNPAEIATQIDHALRVCFIRSRPVYIMLPTDMVQAKVEGARLKEPIDLSEPPNDPEKEAYVVDVVLKYLRAAKNPVILVDACAIRHRVLDEVHDLIEKTNLPVFVTPMGKGAVNEEHPTYGGVYAGDGSHPPQVKDMVESSDLILTIGALKSDFNTAGFSYRTSQLNTIDLHSDHCIVKYSTYPGVQMRGVLRQVIKQLDASEINAQPAPVVENEVAKNRDNSPVITQAFFWPRVGEFLKKNDIVITETGTANFGIWDTKFPSGVTALSQVLWGSIGWSVGACQGAVLAAADDNSDRRTILFVGDGSFQLTAQELSTMIRLKLKPIIFVICNDGFTIERFIHGMEAEYNDIANWDFKALVDVFGGSKTAKKFAVKTKDELDSLLTDPTFNAAECLQFVELYMPKEDAPRALIMTAEASARNNAKTE
modifications: 6xHis tag; Fungal isolate from soil sample
notes: purified as 6×His-tagged protein
  Pyruvate decarboxylase activity: showed activity as a pyruvate decarboxylase
